From paper PMC11919764, “Cryo-electron tomography reveals how COPII assembles on cargo-containing membranes” (Nature Structural & Molecular Biology, 2024)

Molecular target: T1, Sec24 (S. cerevisiae, UniProt P40482 1-926)
T1 construct: Sec24, S. cerevisiae; The Sec24 chain of m2; in the assays it stood in the Sec23–Sec24 complex
T1 sequence: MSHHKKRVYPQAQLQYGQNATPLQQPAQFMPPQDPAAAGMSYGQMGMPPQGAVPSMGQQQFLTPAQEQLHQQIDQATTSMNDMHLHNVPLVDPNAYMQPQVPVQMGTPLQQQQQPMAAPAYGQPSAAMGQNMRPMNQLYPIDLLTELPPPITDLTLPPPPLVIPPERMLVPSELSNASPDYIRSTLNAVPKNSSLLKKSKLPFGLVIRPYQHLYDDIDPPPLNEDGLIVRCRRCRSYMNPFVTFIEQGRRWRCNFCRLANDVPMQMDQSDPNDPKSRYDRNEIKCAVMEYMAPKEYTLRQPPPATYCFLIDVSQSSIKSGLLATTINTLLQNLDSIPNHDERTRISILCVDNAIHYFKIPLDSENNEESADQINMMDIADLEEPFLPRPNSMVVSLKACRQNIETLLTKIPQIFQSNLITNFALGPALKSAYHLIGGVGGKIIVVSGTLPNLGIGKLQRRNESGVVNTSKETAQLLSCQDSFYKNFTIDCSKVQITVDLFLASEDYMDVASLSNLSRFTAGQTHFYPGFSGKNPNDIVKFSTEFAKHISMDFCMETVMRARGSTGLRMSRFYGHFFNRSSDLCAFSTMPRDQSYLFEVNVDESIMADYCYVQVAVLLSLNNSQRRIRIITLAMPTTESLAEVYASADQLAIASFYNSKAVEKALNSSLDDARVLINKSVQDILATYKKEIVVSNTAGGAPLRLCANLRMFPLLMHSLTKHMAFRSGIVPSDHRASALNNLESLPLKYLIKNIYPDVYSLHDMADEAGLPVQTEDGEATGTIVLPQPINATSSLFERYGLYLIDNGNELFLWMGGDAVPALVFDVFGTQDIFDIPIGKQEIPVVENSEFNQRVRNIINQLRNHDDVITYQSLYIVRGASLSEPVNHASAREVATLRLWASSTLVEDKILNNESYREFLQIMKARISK
Assay: cryo-EM structure; cryo-ET with subtomogram averaging of COPII budding reactions on GUVs enriched with Sed5 held by its 6xHis-tag on Ni-NTA lipids: 1 μM Sar1, 180 nM Sec23–Sec24, 173 μM Sec13–Sec31, 360 nM Sed5, 1 mM GMP-PNP, 2.5 mM EDTA (pH 8.0), 10% GUVs (v/v); coated tubes; atomic models rigid-body fitted
Settings: both partners purified

B1: Sed5 cytosolic domain (residues 1–319) with C-terminal 6xHis-tag (domain or fragment, S. cerevisiae)
chain: MNIKDRTSEFQQSVLSYKKRNKNFREQQRERLQEKESENFANNTTGNGKSVSEFQKKASGIAHEISSTAQLLSKLAVLAKRKPMFNDNPVEIAELSFLIKRKIYAIEQSLVQLSQLKKTDVNGNTSNQSSKQPSAVQHSKNVVNLLNTQMKNISGSFKDVLEERQRLEMANKDRWQKLTTDTGHAPADDQTQSNHAADLTTYNNSNPFMTSLLDESSEKNNNSSNQGELSFPQNDSQLMLMEEGQLSNNVYLQERNRAVETIESTIQEVGNLFQQLASMVQEQGEVIQRIDANVDDIDLNISGAQRELLKYFDRIKSNRGGG
notes: Sed5, S. cerevisiae S288c, UniProt Q01590, residues 1–319 (transmembrane helix truncated); flexible triple-glycine linker between residue 319 of Sed5 and the 6xHis-tag; Held on GUVs through Ni-NTA tagged lipids by its C-terminal 6xHis-tag, which stands in place of the transmembrane domain; also called 6xHis-tagged Sed5; source: E. coli BL21, purified (Ni-NTA, HiTrap Q, Superdex 200); not shown: …
binding result: binds
